Data on one substance can be found in patent US20250012721A1, “FLUORESCENCE DETECTION KIT FOR ACTIVATED COMPLEMENT C1s, DETECTION METHOD USING SAME, AND USE THEREOF” (JIANGSU UNIVERSITY, priority 2022, published 2025).

The series concerns the target T1, activated C1s (Homo sapiens, UniProt P09871).
T1 construct: purchased Complement Technology
T1 sequence (P09871 16-437 limits assumed): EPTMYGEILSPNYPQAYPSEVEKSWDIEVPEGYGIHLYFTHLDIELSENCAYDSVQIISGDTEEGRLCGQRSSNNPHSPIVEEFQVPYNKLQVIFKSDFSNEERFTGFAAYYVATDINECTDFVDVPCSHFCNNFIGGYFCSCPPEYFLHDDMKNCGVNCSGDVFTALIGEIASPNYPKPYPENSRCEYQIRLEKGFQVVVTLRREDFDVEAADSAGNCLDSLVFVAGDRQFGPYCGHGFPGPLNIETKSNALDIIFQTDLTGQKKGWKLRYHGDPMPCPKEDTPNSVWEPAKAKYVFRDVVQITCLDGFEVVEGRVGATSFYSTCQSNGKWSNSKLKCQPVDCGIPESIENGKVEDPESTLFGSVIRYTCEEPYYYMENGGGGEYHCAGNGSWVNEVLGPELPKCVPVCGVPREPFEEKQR
T1 sequence (P09871 438-688 limits assumed): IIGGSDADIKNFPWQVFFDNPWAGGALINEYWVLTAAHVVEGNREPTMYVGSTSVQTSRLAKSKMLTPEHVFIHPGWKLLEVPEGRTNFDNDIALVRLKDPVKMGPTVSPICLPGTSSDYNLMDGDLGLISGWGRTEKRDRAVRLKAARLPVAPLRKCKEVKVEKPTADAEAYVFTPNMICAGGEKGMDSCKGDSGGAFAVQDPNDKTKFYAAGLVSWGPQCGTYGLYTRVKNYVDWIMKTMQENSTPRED
In words: Anti-interference experiment of fluorescence detection method for activated C1s. The class given is biochemical. The settings on record: for measured activated C1s enzymatic activity: n = 4. As for the experimental part: • 1. Preparation of a buffer: 1) Binding Buffer: 0.1 M morpholinoethanesulfonic acid (MES, pH=5.0); • 2) Washing Buffer: TBS containing 0.05% Tween 20; • 3) Blocking Buffer: containing 0.05 M Tris, 1.0% BSA, and 0.05% Tween 20; • 4) Desired Buffer: Tris buffer containing 0.05% Tween 20 and BSA; and • 5) Tris Buffer: 0.05 M Tris, 0.15 M NaCl, and 0.2% (w/v) polyethylene glycol 8000. • 2. Preparation of immunomagnetic beads (C1s recombinant antibody-coupled magnetic beads) • (1) 10 mg of magnetic beads (Merck carboxyl magnetic beads, with a particle size of 1 μm) were washed 3 times with 1 mL of Binding Buffer, and vortexed to mix evenly. • (2) 20 μg of the C1s recombinant antibody obtained in Example 1 was added into every 1 mg of the magnetic beads, mixed well, and vortexed at a room temperature (25° C.) for 15 min. • (3) 50 μg of a coupling agent was added into every 1 mg of the magnetic beads, mixed well, and vortexed at a room temperature for 1 h. • (4) 1 mL of Binding Buffer was added and vortexed at a room temperature for 3 h. • (5) The magnetic beads were washed 4 times with 0.5 mL of Washing Buffer. • (6) The magnetic beads were resuspended with 1 mL of Desired Buffer to obtain C1s recombinant antibody-coupled magnetic beads with a concentration of 5 mg/mL, and stored at 4° C. until later use. • 3. Detection of the enzymatic activity of activated C1s • (1) 60 μL of the C1s recombinant antibody-coupled magnetic beads were stirred evenly, subjected to magnetic suction to remove a supernatant, added with 200 μL of PBS to mix well, subjected to the magnetic suction to remove a supernatant, and washed repeatedly 2 times. • (2) 10 μL of a sample to be tested or activated C1s standards with different concentrations were diluted to 100 μL with PBS, and mixed vertically with the C1s recombinant antibody-coupled magnetic beads at a room temperature for 10 min. The magnetic suction was performed to discard a supernatant. According to the enzymatic activity of the C1s standard determined in Example 4, the enzymatic activity conversion of the C1s standards with different concentrations is shown in Table 2.
• (3) The magnetic beads were repeatedly washed 3 times with 100 μL of PBS. • (4) The magnetic beads were resuspended with 90 μL of Tris buffer. • (5) 10 μL of substrate peptide 3 was added at a concentration of 1 μg/mL. • (6) The detection was performed with a microplate reader at 360/40 excitation light wave and 460/40 emission light wave, with a best reaction time of 1 h as a detection point, and the fluorescence signals were measured and recorded. The straight line fitting was performed by taking a C1s enzymatic activity as an abscissa and a fluorescence signal as an ordinate with a double logarithmic Log-Log mathematical model and using a least square method to plot a standard curve.
The possibility that bilirubin, chyle, and hemoglobin in clinical samples cause interference in the experiment was taken into account. Referring to the interference check A kit, high-, medium-, and low-concentration standards were added with different concentrations of bilirubin (with final concentrations of 0 mg/mL, 0.06 mg/mL, 0.14 mg/mL, and 0.20 mg/mL, respectively), chyle (with final concentrations of 0 FTU, 600 FTU, 1,400 FTU, and 2,000 FTU, respectively), and a hemoglobin solution (with final concentrations of 0 mg/mL, 1.5 mg/mL, 3.5 mg/mL, and 5 mg/mL, respectively). The measured high, medium and low average concentrations containing different interfering substances were subtracted from the corresponding average concentrations without interfering substances, and a difference and a percentage of the difference in an average concentration of a blank control without interfering substances were calculated.

In the case of “Hemoglobin: hemoglobin solution, interfering substance from interference check A kit”, the “measured activated C1s enzymatic activity” value (High value standard, hemoglobin 1.5 mg/mL) amounted to 60.57 ± 3.66 pmol/min/µg; the “measured activated C1s enzymatic activity” value (High value standard, hemoglobin 3.5 mg/mL) is 56.23 ± 4.58 pmol/min/µg; the “measured activated C1s enzymatic activity” value (High value standard, hemoglobin 5 mg/mL) was 59.50 ± 5.13 pmol/min/µg; the “measured activated C1s enzymatic activity” value (Low value standard, hemoglobin 1.5 mg/mL) came to 6.00 ± 0.59 pmol/min/µg; the “measured activated C1s enzymatic activity” value (Low value standard, hemoglobin 3.5 mg/mL) was 6.2 ± 0.56 pmol/min/µg; the “measured activated C1s enzymatic activity” value (Low value standard, hemoglobin 5 mg/mL) is 6.37 ± 0.51 pmol/min/µg. Also, the “measured activated C1s enzymatic activity” value came out at 29.47 ± 1.15 pmol/min/µg (Medium value standard, hemoglobin 1.5 mg/mL); 28.16 ± 2.68 pmol/min/µg (Medium value standard, hemoglobin 3.5 mg/mL); 28.23 ± 1.45 pmol/min/µg (Medium value standard, hemoglobin 5 mg/mL). For the same substance, the “interference with the detection method” value (hemoglobin 5 mg/mL) is on record as “not interfered”.
